Test results as given in a protein production outcome set (Wang et al. 2014).

Assay: label from the status in PepcDB records

Sequence	protein production
MLFSLKYLGMTLVEQPKGEELSAAAIKRIVATAKASGKKLQKVTLKVSPRGIILTDNLTNQLIENVSIYRISYCTADKMHDKVFAYIAQSQHNQSLECHAFLCTKRKMAQAVTLTVAQAFKVAFEFWQVSKEEKEKRDKASQEGGDVLGARQDCTPPLKSLVATGNLLDLEETAKAPLSTVSANTTNMDEVPRPQALSGSSVVWELDDGLDEAFSRLAQSRTNPQVLDTGLTAQDMHYAQCLSPVDWDKPDSSGTEQDDLFSF	failed
MLETLMYGAISALVFGTVLPLLYRSKNIRKASSGLSLLSSILLLGFAGIILYTRTEPVFPVTGFLPGAGFTLSADRLAAGFILLIGAVVPGVSIYSVEYVEHAKSEARKSLQASLTNLFILAMLMVILAGNMVSFLVFWEIMSLSSLLLVLHDYSSEENKKAGFFYFVMTNISTAFLFVGFISLFRLTGSADFGPLEYPAADLALPFIFLFIGFGVKAGLVPFHKWLPYAHPAAPSSVSALMSGVMLKVAVYGFLRFLLSVSAPELWWGVLILTAGSISALFGVIYALKENDIKRMLAYSSIENIGIIFTGIGLYAVFKVEGLESLALLSLVGACFHAFNHAVFKSLLFLCAGSVVHATGTRKIEAFGGLVKSMPVTSALFLIGSVSIAAMPPTNGFAGELLLYQAFFQSFAVTDPLLNIFLIIALSSFALTGALAAALFVKLFGITCLAIPRSEKSRLAEEVQKPMLVGPAVPAAFCILGGLFSKQLLSLAGWKIDFPDLLLLGILLGLIYTALFVIIRSKETGPARISETWGCGIPALAPYMEYSSAGFSEPLVMIFKSIYRTKIVNRPEYFDEKESLFKNGKVEIRLLRFFEEYLYIPPARAIDIFSKYVSKLQNGKLDSYVLYAFLAVIVLIIATGGFV	failed
MLPPGMVAAESDFYLRRLWGLPHEDLKSEPRYLATFTVGINQKANIDACVKKFSENFTIVLFHYDGRVTEWDEFEWSKTAIHISVRKQTKWWYAKRFLHPDIVARYDYIFVWDEDLGVEHFNAEEYVKMVKKHGLEISQPGLEPNQGLTWQMTKRRGDMEVHKITEERPGWCSDPHLPPCAAYVEIMAPVFSRNAWRCVWHVIQNDLVHGWGLDFALRRCVEPAHEKIGVVDSQWVVHQSFPSLGNQGEATDGKAPWQGVRDRCKKEWTMFQSRMANAEKDYFKSLQVEGSSNSTATTI	failed
MKMKILGISFGTKNGNNDTMCKVALKGAKEAGAEVEFIQMSSINIKHCTGCCACVKTLLSGKGSMCVLKDDFEWLLDKMKDADGIVVSDPIFEEGASGLFHTIMDRFGPRADRGNNIIGTKVAEAIGGKIPDSRMLNDKVISFMGIGGSDWGTRVQCEHAMLALIPMWKVIDNAWFPWAKELVMDDTRLVQVHQIGLNIVEAAKDFEKASYQGEEGVCPHCHNRLFYLEPGTKKAICALCGIVGELDTISGKTIFSFPEEQLGHAHDTLPGKFIHGDDIKKMEGHYAEVRKTQEFKERKTSYNFIETLTKEKQAGVSLG	failed
MSSSHLAERHAFSDLSLLSEALAQSVTVTLRNAIERYGKASLVVPGGHTPVVYLPRLAQMDLPWQQVFITLSDERWVEPTSEQSNERLVREHFLQHMQQQPHFIALKTGHIHPDQAITDIDARLAELPQPFSLVILGLGEDGHIASLFPGMALNPDTTSLCQTATPPAAPSLRISLSLHALINSDRIILVITGKEKRQLIDRLIESPDQNIPFVRLMQFKPVELFETD	not failed
MKQLPKTRTALLLAFLVIMWGVNWPLSKAALAYSPPLLFAGIRTLIGGLLLVIVALPRIHKLRLKETWPIYLVSALLNITLFYGLQTIGLNYLPAGLFSAIVFFQPVLMGVFSWLWLGESMFVMKVIGLILGFAGVAVISAAGFGGHISVIGVLLALGSAVSWALGTVYMKKTGSRVDSIWMVALQLTIGSVFLLISGFWTESFSAIQWTAPFITSLLFISVFVIALGWLVFFTLVGSGEASKVASYTFLIPLISIVASSIFLHEPLTLSLLAGLLLIVTSICLVNTKSKAQKAAAIGINEKAAQ	failed
MFDFLTHDMLAVVWFFLWCVIWGVYFIADSFSLGAGLLTPFIAADKVQRIQIQSSVGPFWGGNEVWLILAAGGTFAAFPLVFSKMFTFLYLPMMLLLIGLIARGISVEYLHKDDNPRIQQFLMWGWFAGSLLVSLVLGVAFANFFKGLEIASGGVYKGTLPGLFGPYALISGVLFVLMSVTSGALWINVKTEGAVAAKAGDLAKKSALLVLIFALVYLAYSFAGVEGFATNYSSMPVLYLLPVLAVGGAVLSVFFAKKGRAFPAFCSNLLAFLFIVEGGLASIYPYMLKSSISPEYGIDIFEAASSHMTLSVMLGGALVFVPIVIIYQLWAYTLFREKITETEQVEY	failed
FVWHEYENAAEAAQSLADAVADALQGALDEKGGAVLAVSGGRSPIAFFNALSQKDLDWKNVGITLADERIVPTVHADSNTGLVREYLLKNKAEAAMWIPMVEDGKTETELHPDAVVDYALKHYKQPDVLVLGMGNDGHTASIFPKAPQFQTAIDGSAGVALVHTTPVTAPHERVSMTLDAIAHTGHVFLAIRGEEKKAVFDQAAQGENREYPINLVLNHQGVNCHV	failed
MTPPIAADYTAQAVSTDTIGYLHSTESGAGVDGPGMRFVFFVSGCQFRCLYCHNPDTWKLHNGRQVSVEQALSEVAPYARFLKFAGGVTISGGEPLMQHEFVGELFHEIKQRFGLHTALDTQGFLHERVSDAWFDDVDLVMLDIKHSDPEKYQALTGQPLQPTLDFALRLKRLRKKMWIRYVLVPGLTDGDADIEKLADFAASLGDVVERVEVLPFHQLGKDKWAQLGMEYQLNDTPIPTAEQAAHARALFASRGLKVTLEHHHHHH	not failed
RFKQNADHIVLTHVFNGGSAESAALCPQDKIIALDGYACTDFAAQWARYHVRAKINIHFFRAGILRQTVLTVQATAADTAI	failed
MDWGTELWDQFEVLERHTQWGLDLLDRYVKFVKERTEVEQAYAKQLRSLVKKYLPKRPAKDDPESKFSQQQSFVQILQEVNDFAGQRELVAENLSVRVCLELTKYSQEMKQERKMHFQEGRRAQQQLENGFKQLENSKRKFERDCREAEKAAQTAERLDQDINATKADVEKAKQQAHLRSHMAEESKNEYAAQLQRFNRDQAHFYFSQMPQIFDKLQDMDERRATRLGAGYGLLSEAELEVVPIIAKCLEGMKVAANAVDPKNDSHVLIELHKSGFARPGDVEFEDFSQPMNRAPSDSSLGTPSDGRPELRGPGRSRTKRWPFGKKNKTVVTEDFSHLPPEQQRKRLQQQLEERSRELQKEVGQREALKKMKDVYEKTPQMGDSASLEPQIAETLSNIERLKLEVQKYEAWLAEAESRVLSNRGDSLSRHARPPDPPASAPPDSSSNSASQDTKESSEEPPSEESQDTPIYTEFDEDFEEEPTSPIGHCVAIYHFEGSSEGTISMAEGEDLSLMEEDKGDGWTRVRRKEGGEGYVPTSYLRVTLN	not failed
MTTPSHLSDRYELGEILGFGGMSEVHLARDLRLHRDVAVKVLRADLARDPSFYLRFRREAQNAAALNHPAIVAVYDTGEAETPAGPLPYIVMEYVDGVTLRDIVHTEGPMTPKRAIEVIADACQALNFSHQNGIIHRDVKPANIMISATNAVKVMDFGIARAIADSGNSVTQTAAVIGTAQYLSPEQARGDSVDARSDVYSLGCVLYEVLTGEPPFTGDSPVSVAYQHVREDPIPPSARHEGLSADLDAVVLKALAKNPENRYQTAAEMRADLVRVHNGEPPEAPKVLTDAERTSLLSSAAGNLSGPRTDPLPRQDLDDTDRDRSIGSVGRWVAVVAVLAVLTVVVTIAINTFGGITRDVQVPDVRGQSSADAIATLQNRGFKIRTLQKPDSTIPPDHVIGTDPAANTSVSAGDEITVNVSTGPEQREIPDVSTLTYAEAVKKLTAAGFGRFKQANSPSTPELVGKVIGTNPPANQTSAITNVVIIIVGSGPATKDIPDVAGQTVDVAQKNLNVYGFTKFSQASVDSPRPAGEVTGTNPPAGTTVPVDSVIELQVSKGNQFVMPDLSGMFWVDAEPRLRALGWTGMLDKGADVDAGGSQHNRVVYQNPPAGTGVNRDGIITLRFGQ	failed
MAAAALREQLNALLSSMFASGLVDEQFQQLQMLQEDGGTPGFVAEVVTLFCDDADRIISELAALLDQPIVDFDKVDAYVHQLKGSSASVGAQKVKFTCMQFRQLCQDKNRDGCIMALAVVRNEFYDLRNKFQTMLQLEQQIQAQQ	not failed
MRQIRYAYAVAVDALYTFLADDGWAIASHIALSTLMALFPFLIVLTSLAGFVGSRELADSAAELLLDVWPAQVASTLSGEIHDVLTTTRGGVLTIGLVLALYFASNGVESLRVGLNRAYAVIEPRPWYLLRLESIGYTLVAAFTALAMGFLIVLGPLIVATARHYVPLLVHDNEPLLTFARYGIAITALTVALFLLHAYLPAGRRSFRQILPGIVFTITASLISGMTFGMYLARFANNYVSMYAGLASVIIALVFLYFIAAIFVYGGELNAAIIKSRLPEGTTLQEAQLRAPGAKPV	not failed
MGAVVVKDLRKRIGKKEILKGISFEIEEGEIFGLIGPNGAGKTTTLRIISTLIKPSSGIVTVFGKNVVEEPHEVRKLISYLPEEAGAYRNMQGIEYLRFVAGFYASSSSEIEEMVERATEIAGLGEKIKDRVSTYSKGMVRKLLIARALMVNPRLAILDEPTSGLDVLNAREVRKILKQASQEGLTILVSSHNMLEVEFLCDRIALIHNGTIVETGTVEELKERYKAQNIEEVFEEVVKCSENF	not failed
KNKKVILFAPTFRGNGHRTAHYPFFKINFARLASYCEEHQATVLFKMHPFVRNKLNIPAIYSKYFLDISNYREVNDVLFITDILISDYSSLIYEFSVFKKPMLFYAFDLEDYIYTRDFYEPYETFVPGKIVKIFDELILALENNDFELEKVKPFLNKNFKYKDGKSSERLVKDLFNKFFQ	failed
MKSKNSLLLTTVFTLLVTITTSNVFAAETATVKADENSTDKKNVSKKSYRVSKKVPAMRNRVYSQLSRAQQLADDGDKIEGFEVLAEVEDRLNSLNSYERAMLFNFYGFMYYANEDITLAVDSFNKVIAETAIPDSLIISTLYSLAQLSMQQQHYKEALDYLTQWREINAKELTGTQEMLFAQVYYQDKDFVNSLKHSEMAISLVEAKNKHPKENWLTLQRATYYELKQPKQVTKVMEKLIRLYDKPQYWLQLSSMYGEIGEEDKQMAVMEAAYQAGYITKASDILTLSQLYLFHGAPFKSAAVLEDSIAQGSIFADEDNLSMLARAYLTAKEYDKATKVLVRVSDIAQSGKHDALLAQTYLNTEQWQAAINSSTLALARYAKHKENKGNQVNDIANMHLILGMANFNLKKFERSLTSFAKAAQFTSTKKTALQWGKYVEREQQHHKVQLAMLN	failed
MTRRGWILFVALCVLWGIPYLLIKVAVRDLTPASLVFLRTATGAVLLLPFVLVRGNLRPVLARWRPIALFTFGEMAVPWLLLADAERHVTSSLAGLVIAATPLVGALASRLSAGHEPLGARRMSGLAVGLAGVVALLGLDLGRGDARAVAELAVVVIGYALAPRIVARRLSDLPALDVVAVSLAMCALAYAPFGIAQLPAALPPAEALGAVAGLGVLCTALAFTLFFQLIAEVGPVRATVVAYVNPAVAVAAGVTLLGEPFTVGTAVGFALILGGSWLATSGAAGRARTPAPASAPAAPGAVAPAAAERAG	failed
MITLNAWYVTWTELYKKKTVKMTTIYKNHSYYNSRVKNSIGKMYLQDIKTYHVQKFLNDLIDSGLAHGTVSNIRFMLSDMFDKAVLSEYIRKNPCIGVEMPKEVKKERLEHHHHHH	failed
MAKLTESMTNVLEGDSMDQDVESPVAIHQPKLPKQARDDLPRHISRDRTKRKIQRYVRKDGKCNVHHGNVRETYRYLTDIFTTLVDLKWRFNLLIFVMVYTVTWLFFGMIWWLIAYIRGDMDHIEDPSWTPCVTNLNGFVSAFLFSIETETTIGYGYRVITDKCPEGIILLLIQSVLGSIVNAFMVGCMFVKISQPKKRAETLVFSTHAVISMRDGKLCLMFRVGDLRNSHIVEASIRAKLIKSKQTSEGEFIPLNQTDINVGYYTGDDRLFLVSPLIISHEINQQSPFWEISKAQLPKEELEIVVILEGMVEATGMTCQARSSYITSEILWGYRFTPVLTLEDGFYEVDYNSFHETYETSTPSLSAKELAELASRAELPLSWSVSSKLNQHAELETEEEEKNLEEQTERNGDVANLENESKV	failed
